# From patent US20220211860A1, “PEPTIDE DERIVATIVES AND CONJUGATES THEREOF FOR TREATING CANCER” (priority 2019, published 2022)
# Tests used:
# [1] = In vitro metabolic stability (release of free MMAE, LC/MS), mouse plasma; format: in vitro ADME; details: 1 μM, 37° C., 10 days
# Method: FIG. 11: Stability of LHRHD-(mc-vc-PABC)-MMAE (i.e. LD5-mc-vc-PABC-MMAE) in human plasma, mouse plasma, and cell culture media (c-media). The stability was measured based on the presence of free MMAE detected in the samples by LC-MS at each time point relative to time 0. Error Bars are standard deviations (STDV), p>0.05 and n=9 (mean is calculated from samples in triplicate in 3 independent experiments).
# The metabolic stability of LD5-(mc-vc-PABC)-MMAE was investigated in cell culture media (c-media), human and mouse plasma. An LC/MS method was developed to detect both free MMAE and the presence of any degraded species from the whole construct, LD5-(mc-vc-PABC)-MMAE. To evaluate the stability of the valine-citrulline linkage, LD5-(mc-vc-PABC)-MMAE at 1 μM was incubated in c-media, human and mouse plasma at 37° C. for a period of 10 days. Aliquots were taken at pre-determined time intervals (t=0, 1, 2, 4, 7, 10 days) and analysed by LC/MS for the release of free MMAE.
# MDA-MB-231 = experiment: In vitro uptake in TNBC cells versus normal breast cells (confocal LSM); format: cell-based, human; details: 1 μM, 18 h; MDA-MB-231 compared to normal breast cells (MCF-10A and HMEC)
# Method: FIGS. 7A and 7B: In vitro uptake study of LD5-me-vc-PABC-MMAE in TNBC cell line and normal breast cells. (A) MDA-MB-231 as a TNBC cell model, MCF-10A and HMEC as normal breast cells were treated with 1 μM of LD5-me-vc-PABC-MMAE (LM) for 18 h. LM was stained using monoclonal primary antibody specific for LHRH and secondary antibody conjugated with Rhodamine and detected by LEICA SPE2 confocal LSM. (B) The LM signal intensity was measured by Fiji J software in normal breast cells (HMEC and MCF-10A) and TNBC cell model (MDA-MB-231). […] The signal intensity in these cell lines were assessed by one-way ANOVA followed by Tukey's multiple comparisons test (****p<0.0001). Error bars are standard deviations (STDV), n=8 (3 independent repeats).
# The uptake of LD5-me-vc-PABC-MMAE by TNBC cells was examined using the TNBC cell line (MDA-MB-231) which overexpresses LHRH-R. The uptake was compared with normal breast cells (LHRH-R negative control). LD5-me-vc-PABC-MMAE was incubated with […] for 18 h, and intracellular uptake of the conjugate was monitored using confocal LSM (FIG. 7A).
# This was supported by quantitative comparisons of the intracellular uptake of LD5-mc-vc-PABC-MMAE in LHRH-R positive and negative cells (FIG. 7B).
# female NOD/SCID mice = experiment: Phase I: single-dose MTD in mice; format: in vivo; details: for Body Weight: individual animals
# Method: LD5-(mc-vc-PABC)-MMAE was administered IV to groups of 3 female NOD/SCID mice (23±3 g). Animals received an initial dose of 3 mg/kg. If the animals survived for 72 hours, the dose for the next cohort was increased. If one or more animals died, the dose for the next cohort was decreased. The testing stopped when all animals survived at the upper bound, or when two or three dose levels had been tested or when the upper or lower bound had been reached. […] Body weights were recorded pre-dose and at 72 hours after treatment. The animals were observed and mortality noted daily after compound administration for 3 days. Gross necropsy was performed on all animals without tissue collection. […] No mortality and body weight changes were noted, signifying the dose level was tolerated (Tables 2 and 3). The dose at 10 mg/kg was then determined for the following repeat-dose MTD study (Phase II).
# LHRH-R = target: T1, LHRH-R (Homo sapiens, UniProt P30968); experiment: Duolink proximity ligation assay (PLA) in MDA-MB-231; format: binding
# T1 construct: endogenous in cells; host or cells: MDA-MB-231
# T1 sequence (P30968 1-328): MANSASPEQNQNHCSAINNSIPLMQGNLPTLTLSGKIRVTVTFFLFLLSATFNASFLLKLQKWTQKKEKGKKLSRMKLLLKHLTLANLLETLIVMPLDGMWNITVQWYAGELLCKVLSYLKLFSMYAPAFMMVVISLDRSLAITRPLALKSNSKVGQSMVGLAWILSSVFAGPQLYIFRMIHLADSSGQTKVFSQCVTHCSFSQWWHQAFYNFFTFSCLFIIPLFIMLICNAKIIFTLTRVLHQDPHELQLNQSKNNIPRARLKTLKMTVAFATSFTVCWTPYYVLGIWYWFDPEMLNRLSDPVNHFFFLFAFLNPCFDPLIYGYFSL
# Method: FIG. 6: Proximity ligation assay was used to show the protein-protein interaction between LHRH-R and LHRH in MDA-MB-231 (TNBC cell model) treated with LD5-me-vc-PABC-MMAE (1 μM) compared to negative control (PBS). Stained nucleus (DAPI blue) and PLA signal (TexasRed) were detected by LEICA SPE2 confocal LSM.
# The binding affinity of the LD5-me-vc-PABC-MMAE conjugate to LHRH receptors was investigated by DuoLink assay.
# Proximity ligation assay (PLA) was used to determine the interaction between LHRH-R and LHRH in LD5-mc-vc-PABC-MMAE treated cells. Duolink® Proximity Ligation Assay (PLA) allows in situ detection of endogenous proteins, protein modifications, and protein interactions with high specificity and sensitivity. Protein targets can be readily detected and localized with single molecule resolution in unmodified cells and tissues. Typically, two primary antibodies raised in different species are used to detect two unique protein targets. PLA reagents were added to the fixed MDA-MB-231 cells after incubating these cells with the primary antibody specific for LHRH-R and LHRH.
structure (smiles),measurement,setting,value
CCNC(=O)[C@@H]1CCCN1C(=O)[C@H](CCCNC(=N)N)NC(=O)[C@H](CC(C)C)NC(=O)[C@@H](CCCCNC1CC(=O)N(CCCCCC(=O)N[C@H](C(=O)N[C@@H](CCCNC(N)=O)C(=O)Nc2ccc(COC(=O)N(C)[C@H](C(=O)N[C@H](C(=O)N(C)[C@@H]([C@@H](C)CC)[C@@H](CC(=O)N3CCC[C@H]3[C@H](OC)[C@@H](C)C(=O)N[C@H](C)[C@@H](O)c3ccccc3)OC)C(C)C)C(C)C)cc2)C(C)C)C1=O)NC(=O)[C@H](Cc1ccc(O)cc1)NC(=O)[C@H](CO)NC(=O)[C@H](Cc1c[nH]c2ccccc12)NC(=O)[C@H](Cc1c[nH]cn1)NC(=O)[C@@H]1CCC(=O)N1 (some centres unmarked) [LD5-mc-vc-PABC-MMAE],total drug released as MMAE,[1],less than 5%
same,intracellular uptake,MDA-MB-231,significantly higher uptake
same,"adverse effects (acute toxic symptoms, autonomic effects)","female NOD/SCID mice; 3 and 10 mg/kg IV, 15 minutes, 1 and 2 hours",No significant adverse effects
same,Mortality (death/test),"female NOD/SCID mice; IV 3 mg/kg, 15 min",0/3
same,Mortality (death/test),"female NOD/SCID mice; IV 3 mg/kg, 1 hr",0/3
same,Mortality (death/test),"female NOD/SCID mice; IV 3 mg/kg, 2 hr",0/3
same,Mortality (death/test),"female NOD/SCID mice; IV 3 mg/kg, 24 hr",0/3
same,Mortality (death/test),"female NOD/SCID mice; IV 3 mg/kg, 48 hr",0/3
same,Mortality (death/test),"female NOD/SCID mice; IV 3 mg/kg, 72 hr",0/3
same,Body Weight,"female NOD/SCID mice; IV 3 mg/kg, 72 hr",21 g
same,Body Weight,"female NOD/SCID mice; IV 3 mg/kg, time 0 (pre-dose)",21 g
same,Mortality (death/test),"female NOD/SCID mice; IV 10 mg/kg, 15 min",0/3
same,Mortality (death/test),"female NOD/SCID mice; IV 10 mg/kg, 1 hr",0/3
same,Mortality (death/test),"female NOD/SCID mice; IV 10 mg/kg, 2 hr",0/3
same,Mortality (death/test),"female NOD/SCID mice; IV 10 mg/kg, 24 hr",0/3
same,Mortality (death/test),"female NOD/SCID mice; IV 10 mg/kg, 48 hr",0/3
same,Mortality (death/test),"female NOD/SCID mice; IV 10 mg/kg, 72 hr",0/3
same,Body Weight,"female NOD/SCID mice; IV 10 mg/kg, time 0 (pre-dose)",20 g
same,binding affinity to LHRH receptors (DuoLink assay),"LHRH-R; MDA-MB-231, 1 μM",high binding affinity
same,interaction between LHRH-R and LHRH (PLA signal),"LHRH-R; fixed MDA-MB-231 cells, qualitative",confirmed interactions between LHRH-R and its ligand
